From US20180155451A1 (published 2018)

T1: FcγRIIb (human, UniProt P31994 43-217)
T1 construct: extracellular domain; also called FcgRIIb; 2b; not shown: His tag at the C terminus
T1 sequence (looked up): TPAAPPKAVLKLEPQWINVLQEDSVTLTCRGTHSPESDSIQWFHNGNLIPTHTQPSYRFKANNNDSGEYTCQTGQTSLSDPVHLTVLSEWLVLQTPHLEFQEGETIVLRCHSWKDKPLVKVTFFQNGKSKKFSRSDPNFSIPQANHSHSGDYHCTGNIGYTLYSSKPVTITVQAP

B1: GpH7-A5/GpH7-B3 variant D265_18N/GpL16-k0 (antibody, human IgG1, kappa)
heavy 1: not shown
heavy 2: not shown
light: DIVMTQSPLSLPVTPGEPASISCQASESLVHSNRNTYLHWYLQKPGQSPQLLIYKVSNRFSGVPDRFSGSGSGTDFTLKISRVEAEDVGVYYCSQNTHVPPTFGQGTKVEIERTVAAPSVFIFPPSDEQLKSGTASVVCLLNNFYPREAKVQWKVDNALQSGNSQESVTEQDSKDSTYSLSSTLTLSKADYEKHKVYACEVTHQGLSSPVTKSFNRGEC
notes: He Ab: mutation only in the GpH7-B3 H chain; EU numbering; also called He Ab
B2: GpH7-A5/GpH7-B3 variant V266_11K/GpL16-k0 (antibody, human IgG1, kappa)
heavy 1: not shown
heavy 2: not shown
light: B1 light
notes: as for B1
B3: GpH7-A5/GpH7-B3 variant S267_18N/GpL16-k0 (antibody, human IgG1, kappa)
heavy 1: not shown
heavy 2: not shown
light: B1 light
notes: as for B1
B4: GpH7-A5/GpH7-B3 variant V266_20W/GpL16-k0 (antibody, human IgG1, kappa)
heavy 1: not shown
heavy 2: not shown
light: B1 light
notes: as for B1
B5: GpH7-A5/GpH7-B3 variant S267_20W/GpL16-k0 (antibody, human IgG1, kappa)
heavy 1: not shown
heavy 2: not shown
light: B1 light
notes: as for B1
B6: GpH7-A5/GpH7-B3 variant V266_01G/GpL16-k0 (antibody, human IgG1, kappa)
heavy 1: not shown
heavy 2: not shown
light: B1 light
notes: as for B1
B7: GpH7-A5/GpH7-B3 variant S239_20W/GpL16-k0 (antibody, human IgG1, kappa)
heavy 1: not shown
heavy 2: not shown
light: B1 light
notes: as for B1
B8: GpH7-A5/GpH7-B3 variant V266_13S/GpL16-k0 (antibody, human IgG1, kappa)
heavy 1: not shown
heavy 2: not shown
light: B1 light
notes: as for B1
B9: GpH7-A5/GpH7-B3 variant V266_10E/GpL16-k0 (antibody, human IgG1, kappa)
heavy 1: not shown
heavy 2: not shown
light: B1 light
notes: as for B1
B10: GpH7-A5/GpH7-B3 variant V266_05P/GpL16-k0 (antibody, human IgG1, kappa)
heavy 1: not shown
heavy 2: not shown
light: B1 light
notes: as for B1
B11: GpH7-A5/GpH7-B3 variant S267_11K/GpL16-k0 (antibody, human IgG1, kappa)
heavy 1: not shown
heavy 2: not shown
light: B1 light
notes: as for B1
B12: GpH7-A5/GpH7-B3 variant V266_04F/GpL16-k0 (antibody, human IgG1, kappa)
heavy 1: not shown
heavy 2: not shown
light: B1 light
notes: as for B1
B13: GpH7-A5/GpH7-B3 variant S267_05P/GpL16-k0 (antibody, human IgG1, kappa)
heavy 1: not shown
heavy 2: not shown
light: B1 light
notes: as for B1
B14: GpH7-A5/GpH7-B3 variant S267_15Y/GpL16-k0 (antibody, human IgG1, kappa)
heavy 1: not shown
heavy 2: not shown
light: B1 light
notes: as for B1
B15: GpH7-A5/GpH7-B3 variant V266_18N/GpL16-k0 (antibody, human IgG1, kappa)
heavy 1: not shown
heavy 2: not shown
light: B1 light
notes: as for B1
B16: GpH7-A5/GpH7-B3 variant S267_16H/GpL16-k0 (antibody, human IgG1, kappa)
heavy 1: not shown
heavy 2: not shown
light: B1 light
notes: as for B1
B17: GpH7-A5/GpH7-B3 variant S267_04F/GpL16-k0 (antibody, human IgG1, kappa)
heavy 1: not shown
heavy 2: not shown
light: B1 light
notes: as for B1
B18: GpH7-A5/GpH7-B3 variant D265_20W/GpL16-k0 (antibody, human IgG1, kappa)
heavy 1: not shown
heavy 2: not shown
light: B1 light
notes: as for B1
B19: GpH7-A5/GpH7-B3 variant V266_16H/GpL16-k0 (antibody, human IgG1, kappa)
heavy 1: not shown
heavy 2: not shown
light: B1 light
notes: as for B1
B20: GpH7-A5/GpH7-B3 variant V266_15Y/GpL16-k0 (antibody, human IgG1, kappa)
heavy 1: not shown
heavy 2: not shown
light: B1 light
notes: as for B1
B21: GpH7-A5/GpH7-B3 variant D265_19Q/GpL16-k0 (antibody, human IgG1, kappa)
heavy 1: not shown
heavy 2: not shown
light: B1 light
notes: as for B1

Each binder was assayed against T1, FcγRIIb (assay: SPR (Biacore), captured antibody, soluble FcγR; relative to GpH7-A5/GpH7-B3/GpL16-k0).

Row | He/Con_2b | Binder
1 | 6.1 relative, HeCon Ab = 100 | B1
2 | 1 relative, HeCon Ab = 100 | B2
3 | 47.7 relative, HeCon Ab = 100 | B3
4 | 71.9 relative, HeCon Ab = 100 | B4
5 | 57.2 relative, HeCon Ab = 100 | B5
6 | 51.5 relative, HeCon Ab = 100 | B6
7 | 45.1 relative, HeCon Ab = 100 | B7
8 | 54.4 relative, HeCon Ab = 100 | B8
9 | 15.2 relative, HeCon Ab = 100 | B9
10 | 0.4 relative, HeCon Ab = 100 | B10
11 | 12.2 relative, HeCon Ab = 100 | B11
12 | 57.6 relative, HeCon Ab = 100 | B12
13 | 31.5 relative, HeCon Ab = 100 | B13
14 | 37.9 relative, HeCon Ab = 100 | B14
15 | 69.7 relative, HeCon Ab = 100 | B15
16 | 65.9 relative, HeCon Ab = 100 | B16
17 | 48 relative, HeCon Ab = 100 | B17
18 | 1.1 relative, HeCon Ab = 100 | B18
19 | 57.2 relative, HeCon Ab = 100 | B19
20 | 49.4 relative, HeCon Ab = 100 | B20
21 | 33.4 relative, HeCon Ab = 100 | B21

These binders were tested against T2, FcγRIa (human, UniProt P12314 16-292) in the same assay as above.
T2 construct: extracellular domain; also called FcgRI; 1a; not shown: His tag at the C terminus
T2 sequence (P12314 16-292): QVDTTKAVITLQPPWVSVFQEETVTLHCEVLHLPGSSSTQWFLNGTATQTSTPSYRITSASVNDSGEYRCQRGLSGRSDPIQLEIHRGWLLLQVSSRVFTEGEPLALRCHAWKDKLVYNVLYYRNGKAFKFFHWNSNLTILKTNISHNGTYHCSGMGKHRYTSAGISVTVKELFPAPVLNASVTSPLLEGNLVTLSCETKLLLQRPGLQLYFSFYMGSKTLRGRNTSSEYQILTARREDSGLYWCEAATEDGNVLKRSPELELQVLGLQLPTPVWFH

Row | He/Con_1a | Binder
22 | 27.7 relative, HeCon Ab = 100 | B1
23 | 64.4 relative, HeCon Ab = 100 | B2
24 | 102 relative, HeCon Ab = 100 | B3
25 | 91.4 relative, HeCon Ab = 100 | B4
26 | 99.4 relative, HeCon Ab = 100 | B5
27 | 91.3 relative, HeCon Ab = 100 | B6
28 | 92.7 relative, HeCon Ab = 100 | B7
29 | 90.6 relative, HeCon Ab = 100 | B8
30 | 81.9 relative, HeCon Ab = 100 | B9
31 | 71.9 relative, HeCon Ab = 100 | B10
32 | 93.3 relative, HeCon Ab = 100 | B11
33 | 96.7 relative, HeCon Ab = 100 | B12
34 | 91.8 relative, HeCon Ab = 100 | B13
35 | 94.2 relative, HeCon Ab = 100 | B14
36 | 99.5 relative, HeCon Ab = 100 | B15
37 | 100 relative, HeCon Ab = 100 | B16
38 | 97.7 relative, HeCon Ab = 100 | B17
39 | 51.5 relative, HeCon Ab = 100 | B18
40 | 89.1 relative, HeCon Ab = 100 | B19
41 | 93.3 relative, HeCon Ab = 100 | B20
42 | 88.8 relative, HeCon Ab = 100 | B21

These binders were tested against T2, FcγRIa (assay: SPR; He/Con_1a divided by He/Con_2b (FcγRIIb as reference)).

Row | Ia/IIb He_1a/2b [ratio] | Binder
43 | 4.52 | B1
44 | 63.5 | B2
45 | 2.15 | B3
46 | 1.27 | B4
47 | 1.74 | B5
48 | 1.77 | B6
49 | 2.06 | B7
50 | 1.67 | B8
51 | 5.37 | B9
52 | 205 | B10
53 | 7.65 | B11
54 | 1.68 | B12
55 | 2.91 | B13
56 | 2.48 | B14
57 | 1.43 | B15
58 | 1.52 | B16
59 | 2.04 | B17
60 | 45.6 | B18
61 | 1.56 | B19
62 | 1.89 | B20
63 | 2.66 | B21
